Reference: article PMC11137178, “Protein disulfide isomerase-9 interacts with the lumenal region of the transmembrane endoplasmic reticulum stress sensor kinase, IRE1, to modulate the unfolded protein response in Arabidopsis” (Frontiers in Plant Science, 2024)

T1: PDI9(C63A):mCherry-KDEL (Arabidopsis thaliana, UniProt O48773 25-440, C63A)
T1 construct: PDI9, Arabidopsis thaliana, At2g32920; as m1 with the second cysteine of the first thioredoxin active site (CGHC to CGHA) changed; Parent construct m1; source: Arabidopsis leaf mesophyll protoplasts, transiently transfected, in living cells; not shown: mCherry-KDEL, C-terminal, kept
T1 sequence (looked up): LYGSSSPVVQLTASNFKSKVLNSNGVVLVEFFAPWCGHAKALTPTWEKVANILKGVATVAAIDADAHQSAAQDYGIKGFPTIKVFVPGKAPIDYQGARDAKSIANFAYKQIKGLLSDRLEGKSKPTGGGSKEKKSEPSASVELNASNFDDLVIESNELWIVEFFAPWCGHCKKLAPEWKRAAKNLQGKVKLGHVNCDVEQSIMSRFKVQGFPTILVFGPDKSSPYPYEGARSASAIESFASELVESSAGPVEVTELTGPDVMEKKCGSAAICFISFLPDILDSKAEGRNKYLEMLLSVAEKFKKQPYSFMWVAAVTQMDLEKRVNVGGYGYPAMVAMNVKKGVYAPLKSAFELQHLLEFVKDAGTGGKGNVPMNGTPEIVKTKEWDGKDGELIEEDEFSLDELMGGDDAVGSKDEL

T2: PDI9:mCherry-KDEL (Arabidopsis thaliana, UniProt O48773 25-440)
T2 construct: Protein disulfide isomerase-9 (PDI9, PDI-M subfamily), Arabidopsis thaliana, At2g32920; made from the earlier construct PDI9:GFP-KDEL (Yuen et al., 2013) by exchanging GFP for mCherry; also called PDI9:Cherry-KDEL; PDI9:RFP; source: Arabidopsis leaf mesophyll protoplasts, transiently transfected, in living cells; not shown: mCherry-KDEL, C-terminal, kept
T2 sequence (looked up): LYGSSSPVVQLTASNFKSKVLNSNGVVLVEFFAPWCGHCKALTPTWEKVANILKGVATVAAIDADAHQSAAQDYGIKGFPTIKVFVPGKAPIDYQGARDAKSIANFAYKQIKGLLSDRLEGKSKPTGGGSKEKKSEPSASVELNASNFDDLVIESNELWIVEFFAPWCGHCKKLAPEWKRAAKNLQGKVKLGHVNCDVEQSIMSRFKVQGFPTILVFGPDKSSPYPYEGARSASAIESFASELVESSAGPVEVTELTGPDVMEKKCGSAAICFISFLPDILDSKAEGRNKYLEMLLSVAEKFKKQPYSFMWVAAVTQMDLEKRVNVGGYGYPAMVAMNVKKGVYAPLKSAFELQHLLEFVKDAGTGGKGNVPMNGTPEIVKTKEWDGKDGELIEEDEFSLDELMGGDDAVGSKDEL


Key:
PDI9(C63A):mCherry-KDEL = target: T1, PDI9(C63A):mCherry-KDEL; assay: FRET or BRET; FLIM-FRET in living Arabidopsis leaf mesophyll protoplasts coexpressing the GFP donor (on IRE1) and the mCherry acceptor (on PDI9), 16-18 h after transfection; GFP lifetime per region of interest; E = (1 - ti/t0) x 100% against single-transfected GFP:IRE1; conditions: partners not purified
PDI9:mCherry-KDEL = target: T2, PDI9:mCherry-KDEL; assay: as above; conditions: partners not purified

Binder | GFP donor fluorescence lifetime (PDI9(C63A):mCherry-KDEL) [ns] | GFP donor fluorescence lifetime (PDI9:mCherry-KDEL) [ns]
GFP : IRE1B (receptor, Arabidopsis thaliana, UniProt Q93VJ2 22-881, looked up, IRE1B, Arabidopsis thaliana, At5g24360; mature polypeptide region amplified from Col-0 genomic DNA and placed after the IRE1B signal peptide and GFP; Construct order: IRE1B signal peptide, GFP, mature IRE1B; source: Arabidopsis leaf mesophyll protoplasts, transiently transfected; in living cells (FLIM-FRET) and in protoplast extract (co-I.P.); not shown: GFP (eGFP S65T), N-terminal, kept) FKGSEISKFYDKSISNQISQSDRESGYVLVSTVDGSISLVDMSSQKLDWTFHTNEPIYSSYQAPHYHYTTDEERSSVLGDDFYMDCDKDWRLYNSSVRKGKRVNEIVDASEFIGTLPYTSTDRIVLGKKDTSVFLLDWKTGKLVKRYRMDELYSNTVVENDKEKAIVLSKEAPLLFGSGFKKSEDFPELVYIERKDFKIQCISKFGDVLWSVSYAKMEAKLQNHESVQFISGLSSSVGKNQFPLSYTTSVPMVQLRNVKYETLFPRLGFLDEALYLPFQDRKPNQLAIGDGNQLTLPGNKEAEEVLSLPLPETVISQITDIIDGSTKQAGFASKFSGLIVLIFGFCVTMLSVCGLFFYRLRQSIRIKEPYVSEVPIATPKKKKSKKNGTTKAVHKKENGFISGGNKDPSHEENEKRLLTAFPGLNNSSAEGYRVGKLFVSNKEIAKGSNGTVVLEGSYEGRLVAVKRLVQSHHDVAQKEILNLMASDKHSNIVRWYGVDQDEHFIYISLELCACSLNDLIYASSALLESPMASSSIHSIQINPIFENGKGVELWKENGHPSPVLLKLMRDIVAGLVHLHDIGIVHRDLKPQNVLIVKNSSLCAKLSDMGISKRLPADTSALTRNSTGLGSGSSGWQAPEQLRNERQTRAVDLFSLGCVLFFCMTGGKHPYGDNYERDVNVLNDQKDLFLIESLPEAVHLLTGLLNPDPNLRPRAQDVMHHPLFWNSDMRLSFLRDASDRVELENREEGSQLLAALESTAAVTLNGRWDEKLDSIFLDNIGRYRRYKFDSIRDLLRVIRNKLNHYRELPKELQELLGSVPEGFERYFSSRFPKLLIQVYTVLFDYCNNEEFFFKYSKTTVF | 2.42 | 2.31
GFP : IRE1A (receptor, Arabidopsis thaliana, UniProt Q9C5S2 31-841, looked up, IRE1A (inositol-requiring enzyme-1 kinase), Arabidopsis thaliana, At2g17520; mature polypeptide region amplified from Col-0 genomic DNA and placed after the IRE1A signal peptide and GFP; Construct order: IRE1A signal peptide, GFP, mature IRE1A; source: Arabidopsis leaf mesophyll protoplasts, transiently transfected; in living cells (FLIM-FRET) and in protoplast extract (co-I.P.); not shown: GFP …) DDVTYPIVPSSPGRRSILQIRREPPTEPNTKLVVDRDGKVFLKQQPKETPYWSFSTGSPMHSLYQAPANNNTENATEITRPHIIVEYLNNSKAATTVDGYHNWTVQEFFRQKPLVTDDGVTLGSETTSAYLVDGRSGRLIHVYKSTGDTKITNALVKPASTEDFVNEPLLIRRTDSKLEHFSKTTGKLVWNLTVSHFRAALLCDPVFNSGYDLGPKLQTGIYMPLLCGSQIDVRGPEIVIRVLHDQPMNVKMLPSPSLNHFESENSIMPFGKARESRKLQEQHKQKYTYLFGQWSPVKLLAPLVLLGVVVSVFIKKFSSRGSDVSLKAGPSKKKKNRKSAKDTNRQSVPRGQDQFELIEGGQMLLGFNNFQSGATDGRKIGKLFLSSKEIAKGSNGTVVFEGIYEGRPVAVKRLVRSHHEVAFKEIQNLIASDQHTNIIRWYGVEYDQDFVYLSLERCTCSLDDLIKSYLEFSMTKVLENNDSTEGVAAYKIQLDSLEGVIKGNNFWKVGGHPSPLMLKLMRDIVCGIVHLHELGIVHRDLKPQNVLISKDMTLSAKLSDMGISKRMSRDMSSLGHLATGSGSSGWQAPEQLLQGRQTRAVDMFSLGCVIFYTITGCKHPFGDDLERDVNIVKNKVDLFLVEHVPEASDLISRLLNPDPDLRPSATEVLLHPMFWNSEMRLSFLRDASDRVELENREADSEILKAMESTAPVAIGGKWDEKLEPVFITNIGRYRRYKYDSIRDLLRVIRNKLNHHRELPPEIQELVGTVPEGFDEYFAVRFPKLLIEVYRVISLHCREEEVFRKYFKCDII | 2.42 | 2.29
